Each block holds one substance with its values, some of them ahead of it. Non-standard residues stand in square brackets, D forms with d. No end group written: not given here. Sta = CC(C)C[C@H](N)[C@@H](O)CC(=O)O
Tests used:
Hu-Asp [1] = molecular target: T1, Hu-Asp (Homo sapiens, UniProt P56817); test: Hu-Asp cleavage assay variation for substrates of SEQ ID NO:190 and 191 (Vmax, Km, pH, ionic strength, DMSO); assay type: biochemical; parameters: made in house; host or cells: High Five insect cells; details: 100 mM NaOAc/HOAc, pH 4.5 (stated for SEQ ID NO:190 and 191)
T1 sequence (P56817 46-501): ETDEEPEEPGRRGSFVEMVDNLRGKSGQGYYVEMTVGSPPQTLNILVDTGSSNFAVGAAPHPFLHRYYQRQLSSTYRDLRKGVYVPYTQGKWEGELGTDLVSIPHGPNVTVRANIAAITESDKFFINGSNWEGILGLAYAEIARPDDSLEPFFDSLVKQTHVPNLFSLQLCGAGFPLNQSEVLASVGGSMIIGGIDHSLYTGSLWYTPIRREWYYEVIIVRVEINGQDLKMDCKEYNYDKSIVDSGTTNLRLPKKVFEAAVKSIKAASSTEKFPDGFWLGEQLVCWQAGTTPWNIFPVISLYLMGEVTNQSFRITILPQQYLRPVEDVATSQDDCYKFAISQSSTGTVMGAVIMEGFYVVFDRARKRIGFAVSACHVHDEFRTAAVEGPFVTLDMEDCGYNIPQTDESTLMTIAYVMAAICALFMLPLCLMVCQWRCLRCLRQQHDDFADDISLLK
Method: In the substrates SEISY-EVEFRWKK (SEQ ID NO:190) and GLTNIKTEEISEISY-EVEFRWKK (SEQ ID NO:191), the 10 N-terminal amino acids of peptide SEISY-EVEFRWKK (SEQ ID NO:190) are identical to those of peptide SEISY-EVEFR (SEQ ID NO:152). The difference between the two peptide is the presence of a tryptophan and two lysines in the peptide of SEQ ID NO:190. […] Hu-Asp activity was tested towards SEISY-EVEFRWKK (SEQ ID NO:190) and GLTNIKTEEISEISY-EVEFRWKK (SEQ ID NO:191). […] The activity difference between the two peptides was particularly dramatic in the pH range 4.0-4.6. Specifically, it was 6.3-4.8 times higher for the peptide of SEQ ID NO:191. […] Both peptides were inhibited by increasing concentrations of DMSO. […] As expected, the N-terminus elongation increases activity. […] The development of the substrates of SEQ ID NO:190 and SEQ ID NO:191 is of great value in Hu-Asp inhibition studies and in studies concerning recombinant Hu-Asp refolding from E. coli inclusion bodies.
In a variation of the above assay for substrates of SEQ ID NO:190 or its N-terminally extended version depicted in SEQ ID NO:191), the substrates are incubated with the enzyme to a final reaction solution volume of 200 μl (although reaction mixtures of 50-100 μl also were used) composed of 5-50 μM peptide substrate, 1-10 nM enzyme, 0.1. M sodium acetate buffer at pH 4 to 5. […]

[2] = Solubility of peptide substrate; assay type: physicochemical; details: effect of the addition of two lysines
Hu-Asp [3] = molecular target: T1, Hu-Asp; test: Inhibition of HuAsp enzyme activity by statine-containing peptide; assay type: biochemical
Hu-Asp2 [4] = molecular target: T2, Hu-Asp2 (Homo sapiens, UniProt P56817); test: Hu-Asp2 peptide substrate cleavage assay (HPLC quantitation of cleavage products); assay type: biochemical
T2 construct: made in house; host or cells: High Five insect cells
T2 sequence (P56817 46-501): as above

HEK-293 cells = test: ELISA of secreted Aβ40 and Aβ42 in medium of transfected HEK-293 cells; assay type: cell-based, human; details: medium of the transfected HEK-293 cells
Method: As one indicator of APP processing, levels of secreted Aβ from the medium of the transfected HEK-293 cells were measured. Measurements were by ELISA using antibody 6E10 (Syntek, St. Louis, Mo.) to capture Aβ and antibody 208 for Aβ40 and antibody 165 for Ap42. […] Using additional constructs in peptide activity assays, it was determined that if an Asn residue was substituted in place of a Ser to give SEVNY-↓-EVEFR (SEQ ID NO:170), this peptide has an activity that is only ⅕ than that of SEVSY-↓-EVEFR (SEQ ID NO:141; Table 4). This observation reaffirms that amino acid optimization at a certain position depends on the rest of the substrate sequence.

Hu-Asp2 [5] = molecular target: T2, Hu-Asp2; test: Hu-Asp2 peptide substrate cleavage assay (HPLC quantitation of cleavage products); assay type: biochemical
Method: The peptides listed in Table 2 were designed, synthesized, and tested for activity as substrates for Hu-Asp2. 200 μM of each test substrate was incubated with 210 nM Hu-Asp2 enzyme at pH 4.5 at 37° C. for 3 hours. Of course it should be understood that these are merely exemplary assay conditions, and those of skill in the art will be able to vary these conditions and yet still provide appropriate Hu-Asp2 activity. For example, it is envisioned that the assays may be conducted at a pH range of from between about 4.0 to about 7.0. The amount of enzyme added to a given reaction mixture may also be varied and those of skill in the art will be able to perform assays defining the optimal enzyme concentrations necessary for a given assay, as such 150 nm; 200 nm; 250 nm; 300 nm or more or less enzyme may be added. Substrate concentration in those also may be varied such that an assay may use 100, 150 μM, 200 μM, 250 μM, 300 μM, 350 μM or more or less of any given; substrate. It may be that one substrate produces an optimum activity at one concentration whereas another substrate is needed to be present at a different concentration to produce an optimum cleavage rate. However, such optimizations of enzyme assay conditions is well within the skill of those in the art and will not require undue experimentation.
In an exemplary assay to determine the cleavage of the substrates of the present invention, Asp2 was prepared from High Five™ insect cells. Generally, the assasy are run in solution at acidic pH (4.0 to 5.0), at 25-37° C. in the presence of nM or sub-nanomolar enzyme. After a suitable period of incubation the reaction is stopped at a desired time by addition of 4% trifluoracetic acid (TFA). Substrates and products are separated using reverse phase HPLC. The disappearance of the substrates and the appearance of the products are monitored by continuous measurement of the absorbance of the effluent at […]. Furthermore, if the peptide comprises a tryptophan residue, the monitoring may additionally or alternatively involve continuous monitoring of fluorescence of tryptophan fluorescence (excitation at 280 nm, emission at […]) of the effluent.
In a typical assay, 210 nM enzyme and 200 μM substrate were incubated in 0.2 M sodium acetate at pH 4.5 in 100 μl volume at 37° C. for 1 to 3 hours. The assay was stopped by the addition of 50 μl 4% TFA to lower the pH below the active range of the enzyme. Subsequently, 100 μl of this mixture was injected into a Hewlett Packard Model 1090 HPLC equipped with a Vydac column (4.6 mm i.d.×150 mm, 5 μm) pre-equilibrated with 95% A (0.15% TFA in water), 5% B (0.15% TFA in acetonitrile). The constituents were then eluted from the column with the following linear gradients: 0-15 min: 5-50% B; 15-17 min: 50-100% B; 17-20 min: 100-5% B; 20-22 min: 5% B). The cleavage products were then quantitated using an enhanced integrator. […]

Km (Hu-Asp [1]): 86.7 µM
solubility [2]: increased solubility
Substance: SEISYEVEFRWKK [SEQ ID NO:190, SEISY-EVEFRWKK]

inhibition of HuAsp enzyme activity (Hu-Asp [3]): shown to inhibit HuAsp enzyme activity
Substance: SEVN[Sta]VAEFRGGC [statine-containing peptide]

activity compared with Swedish mutant peptide (SEQ ID NO:19) (Hu-Asp2 [4]; Table 4): 1.4 fold
Relative rate of Cleavage (Hu-Asp2 [4]; Table 4, 200 nM enzyme, 200 μM substrate, pH 4.5, 37° C., 1 hr, SEQ ID NO:19 = 100): 141.8
Cleavage Activity (Hu-Asp2 [4]; Table 5, 2 nM enzyme, 50 μM substrate, 25 mM Sodium acetate, pH 4.4, 37° C., 2 hr): 0.16 µmol/min/mg
Relative rate of Cleavage (Hu-Asp2 [4]; Table 5, 2 nM enzyme, 50 μM substrate, 25 mM Sodium acetate, pH 4.4, 37° C., 2 hr, SEQ ID NO:141 = 100): 100
Substance: SEVSY-↓-EVEFR (SEVSYEVEFR)
production of secreted Aβ40 and Aβ42 (HEK-293 cells): easily measurable levels of Aβ
activity as substrate of Hu-Asp2 (in words) (Hu-Asp2 [5]): activity superior to the Swedish mutation
